Reference: publication PMC4641729, “NurA Is Endowed with Endo- and Exonuclease Activities that Are Modulated by HerA: New Insight into Their Role in DNA-End Processing” (PLoS ONE, 2015)

T1: HerA (Sulfolobus solfataricus P2, UniProt Q97WG8 1-500)
T1 sequence: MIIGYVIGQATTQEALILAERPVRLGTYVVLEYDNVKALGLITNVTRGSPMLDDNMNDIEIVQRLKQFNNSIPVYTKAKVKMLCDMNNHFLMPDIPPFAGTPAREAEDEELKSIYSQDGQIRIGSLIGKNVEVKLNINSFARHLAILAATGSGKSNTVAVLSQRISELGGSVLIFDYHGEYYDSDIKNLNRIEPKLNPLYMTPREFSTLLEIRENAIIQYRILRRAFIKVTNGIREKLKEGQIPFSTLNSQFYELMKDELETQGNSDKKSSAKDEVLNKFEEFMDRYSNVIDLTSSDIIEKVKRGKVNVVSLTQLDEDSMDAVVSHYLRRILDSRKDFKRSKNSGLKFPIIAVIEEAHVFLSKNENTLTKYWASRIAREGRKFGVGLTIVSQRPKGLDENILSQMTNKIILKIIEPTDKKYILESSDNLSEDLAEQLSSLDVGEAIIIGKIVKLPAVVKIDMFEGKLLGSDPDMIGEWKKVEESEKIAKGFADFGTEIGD

B1: 70mer EMI fork (70leadCy5/70 lag emi) (mixed)
DNA 1: CGTGACTTGATGTTAACCCTAACCCTAAGAATTCGGCTTAAGTGAGTGTGAGGATATCATGTACGATAGC
DNA 2: CACACTCACTTAAGCCGAATTCTTAGGGTTAGGGTTAACATCAAGTCACG
B2: 70mer bubble (70leadCy5/70 lag bubble) (mixed)
DNA 1: B1 DNA 1
DNA 2: GCTATCGTACATGATATCCTCACACTTTTTTTTTTTTTTTTTTTTGGGTTAGGGTTAACATCAAGTCACG
B3: Sulfolobus solfataricus NurA (enzyme, UniProt Q97WH1 1-339, looked up)
chain: MIRKIYDKLVESHNEIKNQIYNIANYLKQEIQDKVNEYWNEYVINHEQSETCKFVAIDGGSFGRPMRIGIVYAVGAESVIGDNKGVKTLSEDGQIGIFKPGNDAQERISLLMEALELSLALRDGSKGDYILMDGSLSKKIGNKVDIQQFSDEELKLIRNVDLNGIISIKDERKMRDLLMLLNQFLVSKIIEEYDGNVLWISKVSRGRDLFGTDYPDITVLELFTEKRGFSKLIIKNIDIEKISEIPEIEVLRKMEYTTFYTRLDNGKRVIRVDIVGRVDEKIVKEIMDRLSGVSIKGYPFPLLKAHMDVRFSAMDREKIIKLVGSKLHKDIEWWPSQFY
notes: NurA nuclease, ORF SSO2248, Sulfolobus solfataricus strain P2; whole ORF amplified from genomic DNA with primers from the start codon to the stop codon, cloned NdeI/BamHI into pet29a; 39 kDa as monomer; Dimer in solution by gel filtration; Cloned at NdeI with its own stop codon, so probably untagged (surmise); also called SSO2248; NurAwt; source: E. coli BL21-CodonPlus(DE3)-RIL, purified (heat …)
B4: Sulfolobus solfataricus HerA (enzyme, UniProt Q97WG8 1-500, looked up)
chain: T1 sequence
notes: HerA ATPase, ORF SSO2251, Sulfolobus solfataricus strain P2; whole ORF amplified from genomic DNA with primers from the start codon to the stop codon, cloned BamHI/EcoRI into pet29a; 56 kDa as monomer; Hexamer in solution by gel filtration; Cloned at BamHI/EcoRI of pet29a, downstream of the vector's N-terminal S-tag; also called SSO2251; source: E. coli BL21-CodonPlus(DE3)-RIL, purified (heat …)

Key:
HerA = target: T1, HerA; experiment: EMSA; 5 mM MgCl2, 2 mM EDTA; preferred substrate; EMSA: 20 mM HEPES/NaOH pH 7.5, 3.5 mM beta-mercaptoethanol, 50 mM NaCl, 5 mM MgCl2, 2 mM EDTA, 2 pmol DNA in 10 ul, 10 min at room temperature (NurA+HerA: 20 min at 70 C, then DNA 30 min at room temperature); 5% PAGE, 0.5x TBE; details: protein: recombinant, cloned BamHI/EcoRI in pET29a, so a vector-derived N-terminal extension is possible, chain copies: 6
[1] = target: the molecule itself; experiment: SEC; Superdex 200 10/300 GL gel filtration; 800 μg HerA and 200 μg NurA, separately or mixed, incubated at 60°C for 20 min before gel filtration; fractions analysed by SDS-PAGE
[2] = target: B4; experiment: as above; details: both partners purified

Question: Does B1 bind (HerA; label: 5' Cy5 on strand 1, 3' overhang 20 nt on strand 1)?
Answer: binds

Question: Does B2 bind (HerA; label: 5' Cy5 on strand 1, blunt ends, internal T-tract bubble)?
Answer: binds

Question: How did the “stoichiometry N” value [1] turn out when B3 was run?
Answer: 2

Question: Does B3 bind [2]?
Answer: binds

Question: B4 was tested. Which “stoichiometry N” value [1] did it give?
Answer: 6

Question: Does GACGTGGGCAAAGGTTCGTCAATGGACTGACAGCTGCATGG (ssDNA) [ODN2 (single-stranded)] bind (HerA; label: 5' Cy5, single strand)?
Answer: binds
